Data taken from the supplement of paper PMC10065799, “High-throughput profiling of sequence recognition by tyrosine kinases and SH2 domains using bacterial peptide display” (eLife, 2023).

Target: EPHB1 (UniProt P54762)
Assay: phosphorylation enrichment, bacterial display (enrichment ratio); higher = better substrate or ligand; peptides without Tyr show the background
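Throughout, for SH2 binding enrichment of the phosphorylated peptide, bacterial display: peptide library displayed on the E. coli surface as eCPX fusions, selected cells deep-sequenced, score is each peptide's frequency after selection divided by its frequency in the input.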
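Throughout, for phosphorylation enrichment, bacterial display: 11-residue human phosphosite peptides and single-mutation variants displayed on the E. coli surface, counted by deep sequencing, each peptide's frequency after selection divided by its frequency in the unselected input library; frequency after pTyr selection over input frequency; kinase dosed for 20-30% of maximal phosphorylation in three min.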

EPHB1, sequence (P54762 whole entry, looked up): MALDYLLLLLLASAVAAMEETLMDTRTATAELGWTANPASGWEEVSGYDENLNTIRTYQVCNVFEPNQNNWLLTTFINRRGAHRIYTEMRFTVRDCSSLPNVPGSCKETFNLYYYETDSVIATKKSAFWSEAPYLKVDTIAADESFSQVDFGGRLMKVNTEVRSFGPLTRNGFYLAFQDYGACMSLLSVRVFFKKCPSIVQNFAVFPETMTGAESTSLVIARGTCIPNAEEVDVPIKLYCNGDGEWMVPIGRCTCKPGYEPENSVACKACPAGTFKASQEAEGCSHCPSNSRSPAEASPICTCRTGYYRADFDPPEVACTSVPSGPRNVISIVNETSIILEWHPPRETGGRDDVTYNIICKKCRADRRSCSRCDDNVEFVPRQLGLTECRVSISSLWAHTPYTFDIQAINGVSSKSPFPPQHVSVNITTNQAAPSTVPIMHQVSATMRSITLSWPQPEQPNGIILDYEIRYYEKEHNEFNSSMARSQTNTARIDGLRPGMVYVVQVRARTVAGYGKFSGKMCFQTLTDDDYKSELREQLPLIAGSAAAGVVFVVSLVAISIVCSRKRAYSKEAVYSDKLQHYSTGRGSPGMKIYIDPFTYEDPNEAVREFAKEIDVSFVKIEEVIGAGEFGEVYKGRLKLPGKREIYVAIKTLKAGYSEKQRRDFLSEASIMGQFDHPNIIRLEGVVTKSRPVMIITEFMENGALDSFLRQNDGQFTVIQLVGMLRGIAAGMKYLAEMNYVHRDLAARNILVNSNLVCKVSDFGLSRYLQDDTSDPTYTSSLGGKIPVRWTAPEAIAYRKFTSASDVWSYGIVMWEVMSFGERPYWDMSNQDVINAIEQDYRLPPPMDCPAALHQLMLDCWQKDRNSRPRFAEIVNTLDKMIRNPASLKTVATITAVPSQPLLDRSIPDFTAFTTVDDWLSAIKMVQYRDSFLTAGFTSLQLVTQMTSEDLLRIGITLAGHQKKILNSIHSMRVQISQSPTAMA

Going from KWRGQYDVAIR [BTK_Y425_K430R] to LSPNMYNSKFW [TARSL2_Y457_L461F], the phosphorylation enrichment rises from 0.498 to 1.41.

Compared with EEGRVYVYHLS [ITGAE_Y549_R552H], FHLLPYTIRAM [PARS2_Y93_V95I_YF] is lower in phosphorylation enrichment: 0.576 for the first, 0.504 for the second.

First: NNTFLYQLVFD [EXO1_Y284]
Second: PIYLYYLMDLS [ITGB2_Y131_D128Y]
The phosphorylation enrichment of the first is lower: 5.34 for the first, 7.52 for the second.

First: DAVCYYRMENA [NPHS2_Y195_I192V]
Second: PYSNSYENSLI [EPOR_Y489_P488S]
The phosphorylation enrichment of the first is lower: 0.622 for the first, 0.713 for the second.

First: FEDALYTVLHR [UNC13D_Y61_YF]
Second: ARLEYYENEKK [IRS1_Y47]
The phosphorylation enrichment of the first is higher: 16 for the first, 0.686 for the second.

Going from WAAQRYGRELR [BAD_Y110] to FENGEYIVRQG [PRKG1_Y247_I249V_YF], the phosphorylation enrichment rises from 0.406 to 0.612.

Going from EQKRYYNAMKK [SCN5A_Y1495_K1493R] to RFLTRYIFNRE [HLA-DQB1_Y62_V59L_YF], the phosphorylation enrichment rises from 0.356 to 0.624.

First: AASTDYYKRGD [PDHA1_Y242]
Second: RIFDYYSARKA [STOX1_Y858]
The phosphorylation enrichment of the first is higher: 0.51 for the first, 0.499 for the second.

Going from CTTILYNFMCN [TP53_Y234_H233L_YF] to KQFWRYFAGNL [SLC25A4_Y112], the phosphorylation enrichment rises from 0.584 to 0.777.

Going from RVLHNYLVWCV [ECEL1_Y400_R404C] to ADIETYLLEKS [MYH7_Y266], the phosphorylation enrichment falls from 1.02 to 0.466.

Compared with RLLVVYPWTKR [HBB_Y36_Q40K], SGRPGYCLGTR [SCO1_Y60] is higher in phosphorylation enrichment: 0.418 for the first, 0.488 for the second.

First: SVLVPYEPPEV [TP53_Y220_V217L]
Second: DEDYLYREELA [POR_Y575]
The phosphorylation enrichment of the first is lower: 0.651 for the first, 0.71 for the second.

First: SNSATYSGSVA [PDLIM5_Y382]
Second: QLHEHYKIHKE [NSMAF_Y626]
The phosphorylation enrichment of the first is lower: 0.347 for the first, 0.455 for the second.

First: EDGRLYAVKCS [PKMYT1_Y136_R140C]
Second: GGSDRYGSLRP [MYLK_Y846]
The phosphorylation enrichment of the first is higher: 0.594 for the first, 0.385 for the second.

Compared with TWNPKYTLRSH [STRN3_Y474], IRRQGYSHRIL [MYO3B_Y993] is higher in phosphorylation enrichment: 0.399 for the first, 0.4 for the second.

Compared with PRQRRYVYYYS [PTEN_Y174_S170R], GREEFYVHYVG [KAT8_Y90] is lower in phosphorylation enrichment: 0.656 for the first, 0.583 for the second.

VSSPKYGGDDE [TMCC2_Y473_S475G] showed a phosphorylation enrichment of 0.437.

Target: c-Src SH2
Assay: SH2 binding enrichment of the phosphorylated peptide, bacterial display (enrichment ratio); higher = better substrate or ligand; peptides without Tyr show the background

Going from KWRGQYDVAIR [BTK_Y425_K430R] to LSPNMYNSKFW [TARSL2_Y457_L461F], the SH2 binding enrichment falls from 1.74 to 0.506.

First: EEGRVYVYHLS [ITGAE_Y549_R552H]
Second: FHLLPYTIRAM [PARS2_Y93_V95I_YF]
The SH2 binding enrichment of the first is lower: 0.438 for the first, 1.55 for the second.

Compared with NNTFLYQLVFD [EXO1_Y284], PIYLYYLMDLS [ITGB2_Y131_D128Y] is lower in SH2 binding enrichment: 1.14 for the first, 0.751 for the second.

First: DAVCYYRMENA [NPHS2_Y195_I192V]
Second: PYSNSYENSLI [EPOR_Y489_P488S]
The SH2 binding enrichment of the first is lower: 0.548 for the first, 4.51 for the second.

Compared with FEDALYTVLHR [UNC13D_Y61_YF], ARLEYYENEKK [IRS1_Y47] is higher in SH2 binding enrichment: 0.521 for the first, 9.04 for the second.

Going from WAAQRYGRELR [BAD_Y110] to FENGEYIVRQG [PRKG1_Y247_I249V_YF], the SH2 binding enrichment rises from 0.508 to 0.637.

Compared with EQKRYYNAMKK [SCN5A_Y1495_K1493R], RFLTRYIFNRE [HLA-DQB1_Y62_V59L_YF] is lower in SH2 binding enrichment: 1.19 for the first, 0.593 for the second.

Compared with AASTDYYKRGD [PDHA1_Y242], RIFDYYSARKA [STOX1_Y858] is higher in SH2 binding enrichment: 0.4 for the first, 0.469 for the second.

Going from CTTILYNFMCN [TP53_Y234_H233L_YF] to KQFWRYFAGNL [SLC25A4_Y112], the SH2 binding enrichment falls from 1.79 to 0.899.

Going from RVLHNYLVWCV [ECEL1_Y400_R404C] to ADIETYLLEKS [MYH7_Y266], the SH2 binding enrichment falls from 0.643 to 0.405.

Compared with RLLVVYPWTKR [HBB_Y36_Q40K], SGRPGYCLGTR [SCO1_Y60] is higher in SH2 binding enrichment: 0.447 for the first, 0.77 for the second.

First: SVLVPYEPPEV [TP53_Y220_V217L]
Second: DEDYLYREELA [POR_Y575]
The SH2 binding enrichment of the first is higher: 1.14 for the first, 0.501 for the second.

Compared with SNSATYSGSVA [PDLIM5_Y382], QLHEHYKIHKE [NSMAF_Y626] is higher in SH2 binding enrichment: 0.39 for the first, 0.637 for the second.

Compared with EDGRLYAVKCS [PKMYT1_Y136_R140C], GGSDRYGSLRP [MYLK_Y846] is lower in SH2 binding enrichment: 0.473 for the first, 0.428 for the second.

First: TWNPKYTLRSH [STRN3_Y474]
Second: IRRQGYSHRIL [MYO3B_Y993]
The SH2 binding enrichment of the first is higher: 0.943 for the first, 0.542 for the second.

Going from PRQRRYVYYYS [PTEN_Y174_S170R] to GREEFYVHYVG [KAT8_Y90], the SH2 binding enrichment rises from 0.413 to 0.644.

Sequence VSSPKYGGDDE [TMCC2_Y473_S475G] has an SH2 binding enrichment of 0.482.

Target: Grb2 SH2 (UniProt P62993)
Sequence (P62993 whole entry, looked up): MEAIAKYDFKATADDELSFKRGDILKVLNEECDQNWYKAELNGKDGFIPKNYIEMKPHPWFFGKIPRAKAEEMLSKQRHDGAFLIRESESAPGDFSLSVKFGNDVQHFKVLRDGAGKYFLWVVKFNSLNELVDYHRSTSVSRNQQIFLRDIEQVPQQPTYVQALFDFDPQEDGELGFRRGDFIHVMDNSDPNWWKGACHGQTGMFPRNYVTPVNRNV
Assay: as above

First: KWRGQYDVAIR [BTK_Y425_K430R]
Second: LSPNMYNSKFW [TARSL2_Y457_L461F]
The SH2 binding enrichment of the first is higher: 1.35 for the first, 0.909 for the second.

Compared with EEGRVYVYHLS [ITGAE_Y549_R552H], FHLLPYTIRAM [PARS2_Y93_V95I_YF] is higher in SH2 binding enrichment: 0.701 for the first, 1.66 for the second.

Compared with NNTFLYQLVFD [EXO1_Y284], PIYLYYLMDLS [ITGB2_Y131_D128Y] is lower in SH2 binding enrichment: 1.44 for the first, 0.902 for the second.

Going from DAVCYYRMENA [NPHS2_Y195_I192V] to PYSNSYENSLI [EPOR_Y489_P488S], the SH2 binding enrichment rises from 0.676 to 18.4.

Going from FEDALYTVLHR [UNC13D_Y61_YF] to ARLEYYENEKK [IRS1_Y47], the SH2 binding enrichment rises from 0.85 to 1.34.

Going from WAAQRYGRELR [BAD_Y110] to FENGEYIVRQG [PRKG1_Y247_I249V_YF], the SH2 binding enrichment rises from 0.758 to 1.06.

First: EQKRYYNAMKK [SCN5A_Y1495_K1493R]
Second: RFLTRYIFNRE [HLA-DQB1_Y62_V59L_YF]
The SH2 binding enrichment of the first is higher: 1.05 for the first, 0.67 for the second.

First: AASTDYYKRGD [PDHA1_Y242]
Second: RIFDYYSARKA [STOX1_Y858]
The SH2 binding enrichment of the first is lower: 0.824 for the first, 1.48 for the second.

First: CTTILYNFMCN [TP53_Y234_H233L_YF]
Second: KQFWRYFAGNL [SLC25A4_Y112]
The SH2 binding enrichment of the first is higher: 2.3 for the first, 1.09 for the second.

First: RVLHNYLVWCV [ECEL1_Y400_R404C]
Second: ADIETYLLEKS [MYH7_Y266]
The SH2 binding enrichment of the first is higher: 0.921 for the first, 0.755 for the second.

First: RLLVVYPWTKR [HBB_Y36_Q40K]
Second: SGRPGYCLGTR [SCO1_Y60]
The SH2 binding enrichment of the first is lower: 0.951 for the first, 1.12 for the second.

First: SVLVPYEPPEV [TP53_Y220_V217L]
Second: DEDYLYREELA [POR_Y575]
The SH2 binding enrichment of the first is lower: 0.892 for the first, 0.904 for the second.

Going from SNSATYSGSVA [PDLIM5_Y382] to QLHEHYKIHKE [NSMAF_Y626], the SH2 binding enrichment rises from 0.691 to 0.985.

Going from EDGRLYAVKCS [PKMYT1_Y136_R140C] to GGSDRYGSLRP [MYLK_Y846], the SH2 binding enrichment rises from 0.795 to 0.997.

First: TWNPKYTLRSH [STRN3_Y474]
Second: IRRQGYSHRIL [MYO3B_Y993]
The SH2 binding enrichment of the first is higher: 1.11 for the first, 0.762 for the second.

Compared with PRQRRYVYYYS [PTEN_Y174_S170R], GREEFYVHYVG [KAT8_Y90] is lower in SH2 binding enrichment: 0.909 for the first, 0.81 for the second.

VSSPKYGGDDE [TMCC2_Y473_S475G] was tested, and the SH2 binding enrichment was 1.06.

Target: SHP2-C SH2
Assay: as above

Going from KWRGQYDVAIR [BTK_Y425_K430R] to LSPNMYNSKFW [TARSL2_Y457_L461F], the SH2 binding enrichment falls from 1.57 to 0.486.

Compared with EEGRVYVYHLS [ITGAE_Y549_R552H], FHLLPYTIRAM [PARS2_Y93_V95I_YF] is higher in SH2 binding enrichment: 0.897 for the first, 1.62 for the second.

Going from NNTFLYQLVFD [EXO1_Y284] to PIYLYYLMDLS [ITGB2_Y131_D128Y], the SH2 binding enrichment falls from 1.15 to 0.842.

Going from DAVCYYRMENA [NPHS2_Y195_I192V] to PYSNSYENSLI [EPOR_Y489_P488S], the SH2 binding enrichment rises from 0.648 to 0.735.

First: FEDALYTVLHR [UNC13D_Y61_YF]
Second: ARLEYYENEKK [IRS1_Y47]
The SH2 binding enrichment of the first is lower: 0.812 for the first, 0.888 for the second.

Going from WAAQRYGRELR [BAD_Y110] to FENGEYIVRQG [PRKG1_Y247_I249V_YF], the SH2 binding enrichment falls from 0.583 to 0.552.

First: EQKRYYNAMKK [SCN5A_Y1495_K1493R]
Second: RFLTRYIFNRE [HLA-DQB1_Y62_V59L_YF]
The SH2 binding enrichment of the first is lower: 0.899 for the first, 1.17 for the second.

Going from AASTDYYKRGD [PDHA1_Y242] to RIFDYYSARKA [STOX1_Y858], the SH2 binding enrichment rises from 0.593 to 0.648.

Compared with CTTILYNFMCN [TP53_Y234_H233L_YF], KQFWRYFAGNL [SLC25A4_Y112] is lower in SH2 binding enrichment: 2.2 for the first, 0.972 for the second.

Going from RVLHNYLVWCV [ECEL1_Y400_R404C] to ADIETYLLEKS [MYH7_Y266], the SH2 binding enrichment falls from 0.901 to 0.88.

Going from RLLVVYPWTKR [HBB_Y36_Q40K] to SGRPGYCLGTR [SCO1_Y60], the SH2 binding enrichment rises from 0.812 to 0.891.

Compared with SVLVPYEPPEV [TP53_Y220_V217L], DEDYLYREELA [POR_Y575] is higher in SH2 binding enrichment: 0.859 for the first, 0.881 for the second.

Going from SNSATYSGSVA [PDLIM5_Y382] to QLHEHYKIHKE [NSMAF_Y626], the SH2 binding enrichment rises from 0.572 to 0.747.

Compared with EDGRLYAVKCS [PKMYT1_Y136_R140C], GGSDRYGSLRP [MYLK_Y846] is lower in SH2 binding enrichment: 0.714 for the first, 0.562 for the second.

Compared with TWNPKYTLRSH [STRN3_Y474], IRRQGYSHRIL [MYO3B_Y993] is lower in SH2 binding enrichment: 0.883 for the first, 0.526 for the second.

Compared with PRQRRYVYYYS [PTEN_Y174_S170R], GREEFYVHYVG [KAT8_Y90] is higher in SH2 binding enrichment: 0.839 for the first, 2.83 for the second.

In the case of VSSPKYGGDDE [TMCC2_Y473_S475G], the SH2 binding enrichment is reported as 0.54.
